Results from PMC6989803, “Synechocystis KaiC3 Displays Temperature- and KaiB-Dependent ATPase Activity and Is Important for Growth in Darkness” (Journal of Bacteriology, 2019).

B1: KaiB3, recombinant, GST tag cleaved off (natural protein, Synechocystis sp. strain PCC 6803, UniProt Q55819 1-102, looked up)
chain: MDMNRIVLRLYITGNSVRSQQAIANIYRICQEDLGDQYNVEIIDVLEQPQRAEEEKIMVTPTLIKQLPPPLQRIIGDMSNTEKVLLGLDIVPEGLQVRLPED
notes: Eluted as a monomer and as a tetramer; the two fractions were tested separately in the ATPase assay; also called KaiB3 monomer; KaiB3 tetramer
B2: KaiB1, recombinant, GST tag cleaved off (natural protein, Synechocystis sp. strain PCC 6803, UniProt P74645 1-105, looked up)
chain: MSPFKKTYVLKLYVAGNTPNSVRALKMLKNILEQEFQGVYALKVIDVLKNPQLAEEDKILATPTLAKILPPPVRKIIGDLSDREKVLIGLDLLYDEIREREAEDQ
notes: Eluted only as a tetramer from size exclusion chromatography; also called KaiB1 tetramer

Tests used:
[1] = biological target: KaiC3 wild-type protein fused to an N-terminal Strep-tag (Synechocystis sp. strain PCC 6803); test: SEC; Strep-KaiC3 on Sephacryl S300 HR HiPrep 16/60; 20 or 50 mM Tris-HCl (pH 8.0), 150 mM NaCl, 2 mM DTT, 1 mM ATP, 5 mM MgCl2
[2] = biological target: the molecule itself; test: SEC; KaiB1 and KaiB3 on Sephacryl S200 HR HiPrep 16/60 or Superdex 200 Increase 10/30 GL; 20 or 50 mM Tris-HCl (pH 8.0), 150 mM NaCl, 2 mM DTT

| Molecule | stoichiometry N [1] | stoichiometry N [2] |
| --- | --- | --- |
| KaiC3 wild-type protein fused to an N-terminal Strep-tag (enzyme) | 6 | – |
| B1 | – | 4 |
| B2 | – | 4 |
